The values that follow come from patent publication US20220213456.

What all share (test): cleavage_in_vitro
Data set [1] has as its system T1, OMNI-35 (Bartonella apis).
T1 sequence: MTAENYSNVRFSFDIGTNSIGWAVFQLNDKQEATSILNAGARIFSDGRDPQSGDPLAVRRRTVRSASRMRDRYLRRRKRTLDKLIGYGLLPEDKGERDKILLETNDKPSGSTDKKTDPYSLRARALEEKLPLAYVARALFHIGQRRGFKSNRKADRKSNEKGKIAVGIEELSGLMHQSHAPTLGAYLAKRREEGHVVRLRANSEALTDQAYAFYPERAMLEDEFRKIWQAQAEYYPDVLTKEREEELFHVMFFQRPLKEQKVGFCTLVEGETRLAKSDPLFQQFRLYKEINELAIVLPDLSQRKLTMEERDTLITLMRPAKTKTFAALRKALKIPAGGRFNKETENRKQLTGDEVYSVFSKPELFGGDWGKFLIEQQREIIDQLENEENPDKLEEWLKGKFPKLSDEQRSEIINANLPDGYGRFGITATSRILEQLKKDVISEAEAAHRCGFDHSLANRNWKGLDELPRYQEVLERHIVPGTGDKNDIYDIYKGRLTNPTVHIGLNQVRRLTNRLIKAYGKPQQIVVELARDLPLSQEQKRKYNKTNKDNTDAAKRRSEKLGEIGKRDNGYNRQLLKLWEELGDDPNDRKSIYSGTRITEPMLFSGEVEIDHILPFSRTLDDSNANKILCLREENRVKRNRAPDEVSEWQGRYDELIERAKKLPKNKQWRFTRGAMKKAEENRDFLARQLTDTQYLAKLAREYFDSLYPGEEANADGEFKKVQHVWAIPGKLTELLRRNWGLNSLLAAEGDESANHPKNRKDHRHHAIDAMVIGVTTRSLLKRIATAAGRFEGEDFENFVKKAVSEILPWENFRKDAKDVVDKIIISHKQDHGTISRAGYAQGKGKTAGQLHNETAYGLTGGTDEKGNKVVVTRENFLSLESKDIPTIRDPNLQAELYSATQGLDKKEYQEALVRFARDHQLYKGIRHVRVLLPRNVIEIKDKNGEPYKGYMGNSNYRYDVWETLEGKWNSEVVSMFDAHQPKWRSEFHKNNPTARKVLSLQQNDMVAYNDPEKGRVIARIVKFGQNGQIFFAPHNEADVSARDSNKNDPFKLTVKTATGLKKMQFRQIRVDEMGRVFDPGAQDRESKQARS
Conditions: TXTL; PAM NRR; V1, V2 tested.

Data set [2] deals with T2, OMNI-34 (Alistipes sp. An54).
T2 sequence: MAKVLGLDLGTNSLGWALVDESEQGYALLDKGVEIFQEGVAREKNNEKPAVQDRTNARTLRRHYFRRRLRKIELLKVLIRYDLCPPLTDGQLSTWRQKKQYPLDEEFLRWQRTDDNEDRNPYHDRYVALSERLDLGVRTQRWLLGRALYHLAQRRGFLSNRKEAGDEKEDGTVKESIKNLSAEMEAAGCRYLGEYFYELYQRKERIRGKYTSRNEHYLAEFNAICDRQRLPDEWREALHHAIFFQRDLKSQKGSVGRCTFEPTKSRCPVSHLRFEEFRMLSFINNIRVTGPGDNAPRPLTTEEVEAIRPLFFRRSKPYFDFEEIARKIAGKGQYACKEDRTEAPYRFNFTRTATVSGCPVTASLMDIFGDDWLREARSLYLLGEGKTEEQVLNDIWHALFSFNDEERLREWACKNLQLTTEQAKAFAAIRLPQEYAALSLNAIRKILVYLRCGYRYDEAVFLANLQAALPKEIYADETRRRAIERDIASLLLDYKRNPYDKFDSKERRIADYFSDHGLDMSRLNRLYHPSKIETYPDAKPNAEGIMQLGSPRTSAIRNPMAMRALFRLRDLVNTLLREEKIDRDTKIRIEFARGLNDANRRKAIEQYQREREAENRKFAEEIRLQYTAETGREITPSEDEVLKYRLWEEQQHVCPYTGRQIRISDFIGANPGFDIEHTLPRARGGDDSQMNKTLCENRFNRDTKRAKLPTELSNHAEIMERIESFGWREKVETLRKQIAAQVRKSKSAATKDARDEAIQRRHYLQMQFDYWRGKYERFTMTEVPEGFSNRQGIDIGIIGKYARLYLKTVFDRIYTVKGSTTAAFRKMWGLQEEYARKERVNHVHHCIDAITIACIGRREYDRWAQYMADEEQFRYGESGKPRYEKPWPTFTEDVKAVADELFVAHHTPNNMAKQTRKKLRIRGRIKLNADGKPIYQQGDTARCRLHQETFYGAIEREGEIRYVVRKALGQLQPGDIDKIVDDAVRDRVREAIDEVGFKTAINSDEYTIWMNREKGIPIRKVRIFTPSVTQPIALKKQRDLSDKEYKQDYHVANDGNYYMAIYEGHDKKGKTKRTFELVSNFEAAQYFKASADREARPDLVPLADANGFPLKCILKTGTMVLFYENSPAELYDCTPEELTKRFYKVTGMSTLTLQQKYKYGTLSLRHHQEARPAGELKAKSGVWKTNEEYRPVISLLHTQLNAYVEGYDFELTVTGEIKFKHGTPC
Conditions: TXTL; PAM NRNNNNAA; sgRNA V1-V3 tested.

Data set [3] concerns T3, OMNI-52 (Butyrivibrio sp. NC3005).
T3 sequence: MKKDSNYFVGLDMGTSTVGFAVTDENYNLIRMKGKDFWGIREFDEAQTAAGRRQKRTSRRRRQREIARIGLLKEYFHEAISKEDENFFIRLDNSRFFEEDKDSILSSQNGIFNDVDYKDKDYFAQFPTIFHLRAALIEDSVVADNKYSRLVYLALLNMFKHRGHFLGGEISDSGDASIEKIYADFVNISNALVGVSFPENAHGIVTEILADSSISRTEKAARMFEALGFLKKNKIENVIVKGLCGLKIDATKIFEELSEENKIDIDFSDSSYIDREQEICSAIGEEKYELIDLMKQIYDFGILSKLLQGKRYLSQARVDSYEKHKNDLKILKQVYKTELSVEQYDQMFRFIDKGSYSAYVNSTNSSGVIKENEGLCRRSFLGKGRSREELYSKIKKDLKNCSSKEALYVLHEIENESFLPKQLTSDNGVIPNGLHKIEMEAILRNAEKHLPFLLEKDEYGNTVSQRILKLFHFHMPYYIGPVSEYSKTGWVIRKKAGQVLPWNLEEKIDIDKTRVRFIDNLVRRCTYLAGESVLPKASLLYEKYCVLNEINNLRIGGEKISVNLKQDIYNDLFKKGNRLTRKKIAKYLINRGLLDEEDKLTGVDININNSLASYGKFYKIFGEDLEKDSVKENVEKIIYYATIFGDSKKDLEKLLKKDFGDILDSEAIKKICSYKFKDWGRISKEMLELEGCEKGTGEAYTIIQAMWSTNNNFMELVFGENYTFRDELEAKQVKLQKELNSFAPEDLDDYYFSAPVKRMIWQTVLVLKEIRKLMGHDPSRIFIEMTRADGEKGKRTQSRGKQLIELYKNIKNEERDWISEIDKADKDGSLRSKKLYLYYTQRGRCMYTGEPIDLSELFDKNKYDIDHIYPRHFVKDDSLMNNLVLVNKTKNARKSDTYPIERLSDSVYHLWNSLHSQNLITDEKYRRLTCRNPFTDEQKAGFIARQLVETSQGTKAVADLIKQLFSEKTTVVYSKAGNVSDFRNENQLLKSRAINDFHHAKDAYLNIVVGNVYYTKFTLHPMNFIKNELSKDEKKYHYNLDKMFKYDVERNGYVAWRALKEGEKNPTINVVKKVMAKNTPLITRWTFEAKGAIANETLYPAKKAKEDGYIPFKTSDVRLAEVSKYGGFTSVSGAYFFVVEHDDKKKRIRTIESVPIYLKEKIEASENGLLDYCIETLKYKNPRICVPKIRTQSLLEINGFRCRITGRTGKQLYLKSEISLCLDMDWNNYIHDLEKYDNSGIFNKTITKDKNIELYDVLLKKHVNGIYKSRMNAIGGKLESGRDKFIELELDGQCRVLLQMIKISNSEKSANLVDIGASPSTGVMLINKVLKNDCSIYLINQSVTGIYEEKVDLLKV
The note with it: TXTL; PAM NRRADT.

Data set [4] relates to T4, OMNI-51 (Bacteroides coagulans).
T4 sequence: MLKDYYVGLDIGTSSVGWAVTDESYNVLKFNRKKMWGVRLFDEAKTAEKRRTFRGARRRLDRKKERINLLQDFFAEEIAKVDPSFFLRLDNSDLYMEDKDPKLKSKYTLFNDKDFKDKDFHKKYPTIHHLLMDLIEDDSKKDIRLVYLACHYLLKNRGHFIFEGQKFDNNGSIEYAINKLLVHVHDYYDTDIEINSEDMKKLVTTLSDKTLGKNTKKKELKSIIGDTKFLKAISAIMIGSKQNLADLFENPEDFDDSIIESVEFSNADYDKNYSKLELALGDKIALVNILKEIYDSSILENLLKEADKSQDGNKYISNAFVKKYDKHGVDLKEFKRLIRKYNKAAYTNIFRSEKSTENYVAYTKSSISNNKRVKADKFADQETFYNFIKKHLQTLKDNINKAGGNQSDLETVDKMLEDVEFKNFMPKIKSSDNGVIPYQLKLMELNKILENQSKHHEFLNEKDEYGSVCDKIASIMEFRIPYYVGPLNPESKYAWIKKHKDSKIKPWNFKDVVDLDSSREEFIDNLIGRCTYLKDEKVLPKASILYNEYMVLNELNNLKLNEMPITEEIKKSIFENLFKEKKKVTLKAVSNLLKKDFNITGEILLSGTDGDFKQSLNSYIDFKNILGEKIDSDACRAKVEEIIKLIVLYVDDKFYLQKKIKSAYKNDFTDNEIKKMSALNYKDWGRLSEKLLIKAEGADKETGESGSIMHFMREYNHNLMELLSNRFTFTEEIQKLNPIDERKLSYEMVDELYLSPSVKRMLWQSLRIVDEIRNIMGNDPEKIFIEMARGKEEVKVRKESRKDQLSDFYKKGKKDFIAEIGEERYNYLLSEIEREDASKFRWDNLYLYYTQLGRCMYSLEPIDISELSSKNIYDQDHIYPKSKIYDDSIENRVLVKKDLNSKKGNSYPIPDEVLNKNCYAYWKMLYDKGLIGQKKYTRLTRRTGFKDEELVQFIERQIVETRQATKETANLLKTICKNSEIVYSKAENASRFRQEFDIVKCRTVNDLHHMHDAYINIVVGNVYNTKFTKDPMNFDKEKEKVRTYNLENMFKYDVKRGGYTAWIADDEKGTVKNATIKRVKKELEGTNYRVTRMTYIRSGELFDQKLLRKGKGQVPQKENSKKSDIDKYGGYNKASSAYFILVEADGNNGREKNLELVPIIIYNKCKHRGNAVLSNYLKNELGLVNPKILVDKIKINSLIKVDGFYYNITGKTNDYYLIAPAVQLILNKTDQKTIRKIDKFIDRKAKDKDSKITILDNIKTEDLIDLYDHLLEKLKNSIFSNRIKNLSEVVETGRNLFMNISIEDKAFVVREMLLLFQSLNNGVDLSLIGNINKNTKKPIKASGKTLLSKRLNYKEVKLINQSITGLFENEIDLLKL
The note with it: TXTL; PAM NRRAAA.

Turning to “GGAAGAGCAGAGCCUUGGUCUCGUUGCGGCUUGACCGCGAAAGCGGUCUGGCUGUUAACAAGCUAGAUAUGCACCAAAUAAGACAGCUCCUCCGGGGGCUGUUUUUU / GGAAGAGCAGAGCCTTGGTCTCNNNNNNNN / NNNNNNNNGAGACCAAGGCTCTGCTCTTCC [OMNI-35 T2 sgRNA V1 ; pbPOS T2 protospacer 8N PAM library]”, the activity (1-depletion score) in data set [1] worked out at 0.97.
“GGAAGAGCAGAGCCUUGGUCUCGUUGUGGUUUGAUGUAGAAAUACAUCUUACCACAAUAAGGCUAUAUGCCGAAGGUUUUCAACCUACCGUCUCCGCGUAUUCCGUGGAGACUUUUUU / GGAAGAGCAGAGCCTTGGTCTCNNNNNNNN / NNNNNNNNGAGACCAAGGCTCTGCTCTTCC [OMNI-34 T2 sgRNA V1 ; pbPOS T2 protospacer 8N PAM library]” returned an activity (1-depletion score) in data set [2] of 0.82.
Sequence “GGAAGAGCAGAGCCUUGGUCUCGUUUGAGAGCUUUGGAAACAAAGCGAGUGCAAAUAAGGUUUUACCGGAAUCGUCUUUAUUAAGAACCGCAUGGUGCGGAUUAUUUAGAAGCCAUUUAGAUGGCUUCUAUUUU / GGAAGAGCAGAGCCTTGGTCTCNNNNNNNN / NNNNNNNNGAGACCAAGGCTCTGCTCTTCC [OMNI-52 T2 sgRNA V1 ; pbPOS T2 protospacer 8N PAM library]” had an activity (1-depletion score) in data set [3] of 1.
Sequence “GGAAGAGCAGAGCCUUGGUCUCGUUUGAGAGUUAUGGAAACAUGACAGAGUUCAAAUAAAAAUUUAUUCAAACCGCCUAUUUAAUUAUAGGCCGCAGAUGUUCUGCACUAUGCUUGCAAGGUUGCAAGCUUUUUU / GGAAGAGCAGAGCCTTGGTCTCNNNNNNNN / NNNNNNNNGAGACCAAGGCTCTGCTCTTCC [OMNI-51 T2 sgRNA V1 ; pbPOS T2 protospacer 8N PAM library]” showed an activity (1-depletion score) in data set [4] of 1.
